Experimental data taken from paper PMC11898529, “The LSmAD Domain of Ataxin-2 Modulates the Structure and RNA Binding of Its Preceding LSm Domain”.

Assays:
LSm domain of Ataxin-2 [1] = biological target: T1, LSm domain of Ataxin-2 (UniProt Q99700 242-344); assay: size-exclusion chromatography; EMSA: 10 mM Tris pH 8.0, 25 mM KCl, 10 mM NaCl, 1 mM MgCl2, 10% glycerol, 0.5 mM DTT, 20 min, 25 C; SEC and SHAPE buffers not in material; details: protein: recombinant, tags: His tag (pET-22b(+), NdeI/XhoI), single strand with flanking hairpins
T1 sequence (Q99700 242-344): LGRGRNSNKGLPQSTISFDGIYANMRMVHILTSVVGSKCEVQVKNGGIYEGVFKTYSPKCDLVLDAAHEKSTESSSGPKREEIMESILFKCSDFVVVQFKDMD

LSmAD domain of Ataxin-2 = LSmAD domain of Ataxin-2 (UniProt Q99700 353-475); assay: EMSA; protein/RNA molar ratio up to 6; 1 mM MgCl2; EMSA: 10 mM Tris pH 8.0, 25 mM KCl, 10 mM NaCl, 1 mM MgCl2, 10% glycerol, 0.5 mM DTT, 20 min, 25 C; SEC and SHAPE buffers not in material; details: protein: recombinant, tags: His tag, single strand with flanking hairpins
LSmAD domain of Ataxin-2, sequence (Q99700 353-475): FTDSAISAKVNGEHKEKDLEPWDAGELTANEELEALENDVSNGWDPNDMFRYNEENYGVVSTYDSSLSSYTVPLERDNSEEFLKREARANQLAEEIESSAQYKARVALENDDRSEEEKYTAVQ

[2] = biological target: T2, LSm-LSmAD M2 mutant of Ataxin-2 (UniProt Q99700 242-475, S315Q;S317T); assay: SHAPE footprinting; GU-, AU-, CU-rich protected (CU most); CA-rich unchanged; EMSA: 10 mM Tris pH 8.0, 25 mM KCl, 10 mM NaCl, 1 mM MgCl2, 10% glycerol, 0.5 mM DTT, 20 min, 25 C; SEC and SHAPE buffers not in material; details: protein: recombinant
T2 sequence (Q99700 242-475 S315Q/S317T): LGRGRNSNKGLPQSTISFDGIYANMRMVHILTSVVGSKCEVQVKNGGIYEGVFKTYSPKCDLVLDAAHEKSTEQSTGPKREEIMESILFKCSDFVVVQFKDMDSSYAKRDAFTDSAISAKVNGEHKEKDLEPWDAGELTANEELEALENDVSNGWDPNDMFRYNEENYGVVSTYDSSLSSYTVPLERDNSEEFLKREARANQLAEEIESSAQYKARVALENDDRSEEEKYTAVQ

LSm domain of Ataxin-2 [3] = biological target: T1, LSm domain of Ataxin-2; assay: as above; details: protein: recombinant; tags: His tag (pET-22b(+), NdeI/XhoI)
[4] = biological target: T2, LSm-LSmAD M2 mutant of Ataxin-2; assay: EMSA; fully shifted at protein/RNA molar ratio 20; moderate affinity; 1 mM MgCl2; EMSA: 10 mM Tris pH 8.0, 25 mM KCl, 10 mM NaCl, 1 mM MgCl2, 10% glycerol, 0.5 mM DTT, 20 min, 25 C; SEC and SHAPE buffers not in material; details: protein: recombinant; single strand with flanking hairpins
[5] = biological target: T2, LSm-LSmAD M2 mutant of Ataxin-2; assay: SHAPE footprinting; AU-, GU-, CU-rich protected, more than with LSm; CA-rich unchanged; EMSA: 10 mM Tris pH 8.0, 25 mM KCl, 10 mM NaCl, 1 mM MgCl2, 10% glycerol, 0.5 mM DTT, 20 min, 25 C; SEC and SHAPE buffers not in material; details: protein: recombinant
LSm domain of Ataxin-2 [6] = biological target: T1, LSm domain of Ataxin-2; assay: SHAPE footprinting; AU-, GU-, CU-rich protected, less than with M2; CA-rich unchanged; EMSA: 10 mM Tris pH 8.0, 25 mM KCl, 10 mM NaCl, 1 mM MgCl2, 10% glycerol, 0.5 mM DTT, 20 min, 25 C; SEC and SHAPE buffers not in material; details: protein: recombinant; tags: His tag (pET-22b(+), NdeI/XhoI)
[7] = biological target: T2, LSm-LSmAD M2 mutant of Ataxin-2; assay: SHAPE footprinting; AU- and GU-rich protected (GU more than with LSm); CA-rich unchanged; EMSA: 10 mM Tris pH 8.0, 25 mM KCl, 10 mM NaCl, 1 mM MgCl2, 10% glycerol, 0.5 mM DTT, 20 min, 25 C; SEC and SHAPE buffers not in material; details: protein: recombinant
LSm domain of Ataxin-2 [8] = biological target: T1, LSm domain of Ataxin-2; assay: SHAPE footprinting; AU- and GU-rich protected (AU more than with M2); CA-rich unchanged; EMSA: 10 mM Tris pH 8.0, 25 mM KCl, 10 mM NaCl, 1 mM MgCl2, 10% glycerol, 0.5 mM DTT, 20 min, 25 C; SEC and SHAPE buffers not in material; details: protein: recombinant; tags: His tag (pET-22b(+), NdeI/XhoI)

B1: AC-rich RNA (structured_RNA)
RNA: GGCCUUCGGGCCAAACCCCCACCCCCACCCCCACCCCCACCCCCUCGAUCCGGUUCGCCGGAUCCAAAUCGGGCUUCGGUCCGGUUC
**Q.** What does the source list for B1?
**A.** binding result (LSm domain of Ataxin-2 [1]; two conformers in gel): no binding; binding result (LSmAD domain of Ataxin-2; two conformers in gel): no binding

B2: RE5 (structured_RNA)
RNA: GGCCUUCGGGCCAAACCGUACACACACACAUGGCUAGACGGUAUGUUUGUUUGUUGUUUGUUUGUUGUUUGUUUGUGUUUGACGUAGGAAUUUAAUUUAAUUUAAUUUAAUUUAAUUUAAUUUACAGGCUACGUAGGCCAGGACCCCUCUUUUCUCCCCAGGACCCCUCUUUUCUCCCCAUUCACCCUCCCUUCUCCAGAGCGAUUCGAUCCGGUUCGCCGGAUCCAAAUCGGGCUUCGGUCCGGUUC
**Q.** What does the source list for B2?
**A.** binding result [2]: binds; binding result (LSm domain of Ataxin-2 [3]): binds

B3: AU-rich RNA (structured_RNA)
RNA: GGCCUUCGGGCCAAAUUUUUAUUUUUAUUUUUAUUUUUAUUUUUUCGAUCCGGUUCGCCGGAUCCAAAUCGGGCUUCGGUCCGGUUC
**Q.** Does B3 bind (LSm domain of Ataxin-2 [1])?
**A.** binds

**Q.** Does B3 bind (LSmAD domain of Ataxin-2)?
**A.** no binding

**Q.** Does B3 bind [4]?
**A.** binds

B4: RE2 (structured_RNA)
RNA: GGCCUUCGGGCCAAAUUUAUUUAUUUAUUUAGCGAGAAGUUGUUUGUUUGUGUUUGACGUCUGUGUGGACGUCACACACAGGAUGCAUCGGACCUUUUCCCCUUUUCCCUUUUCGAUCCGGUUCGCCGGAUCCAAAUCGGGCUUCGGUCCGGUUC
**Q.** Does B4 bind [5]?
**A.** binds

**Q.** Does B4 bind (LSm domain of Ataxin-2 [6])?
**A.** binds

B5: RE1 (structured_RNA)
RNA: GGCCUUCGGGCCAAAUUUAUUUAUUUAUUUAUUUAGCUGACGAUCCACACACACAGGAAUCGACUCUGUUUGUUUGUGUUUGUUUGUACUGAAUUGGCACUUUUCCCCUUUUCCCUUUCUGGACUGGCAUCGAUCCGGUUCGCCGGAUCCAAAUCGGGCUUCGGUCCGGUUC
**Q.** Does B5 bind [7]?
**A.** binds

**Q.** Does B5 bind (LSm domain of Ataxin-2 [8])?
**A.** binds
